Data reported in article PMC9403797, “Back From the Dead: The Atypical Kinase Activity of a Pseudokinase Regulator of Cation Fluxes During Inducible Immunity” (Frontiers in Plant Science, 2022).

Target: T1, MPK19 (Arabidopsis, UniProt Q9LUC3 1-598)
T1 construct: MPK19, MAPK family kinase, Arabidopsis; fusion protein spotted on the functional protein microarray; source: printed on protein microarrays (AtPMA-5000 and AtPMA-10000)
T1 sequence (looked up): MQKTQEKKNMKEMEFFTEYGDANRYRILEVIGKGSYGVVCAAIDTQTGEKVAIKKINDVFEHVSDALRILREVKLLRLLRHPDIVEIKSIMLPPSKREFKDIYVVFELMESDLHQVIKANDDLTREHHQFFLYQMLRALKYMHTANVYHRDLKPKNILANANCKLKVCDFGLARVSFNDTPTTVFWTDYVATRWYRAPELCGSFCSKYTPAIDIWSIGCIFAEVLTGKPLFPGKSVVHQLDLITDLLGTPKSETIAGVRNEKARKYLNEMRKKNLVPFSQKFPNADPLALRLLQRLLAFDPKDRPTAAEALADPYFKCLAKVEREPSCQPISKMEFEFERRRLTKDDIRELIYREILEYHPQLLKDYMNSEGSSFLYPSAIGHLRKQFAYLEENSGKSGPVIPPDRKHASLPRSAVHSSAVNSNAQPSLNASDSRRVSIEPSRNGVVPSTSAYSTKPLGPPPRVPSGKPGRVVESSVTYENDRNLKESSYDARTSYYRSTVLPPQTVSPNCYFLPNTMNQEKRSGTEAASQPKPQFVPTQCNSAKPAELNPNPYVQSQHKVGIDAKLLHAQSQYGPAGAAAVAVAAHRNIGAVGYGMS
Assay: peptide or protein array; functional protein microarrays (AtPMA-5000 and AtPMA-10000, about 15,000 Arabidopsis proteins) probed with 150 ul purified ILK1-V5 in solution for 1.5 h with 1% BSA, 5 mM MgCl2 and MnCl2; detected with Cy5-conjugated anti-V5 antibody; three probe arrays against two control arrays without probe; one-sided t-test, 5% significance, FDR
Settings: both partners purified

binding result: binds
B1: ILK1-V5 (integrin-linked kinase 1, Arabidopsis) (enzyme, UniProt F4IS56 1-479, looked up)
chain: MENITAQLKRGISRQFSTGSIRRTLSRQFTRQSSLDPRRTNMRFSFGRQSSLDPIRRSPDSSKSDDEPHMSVPENLDSTMQLLFMASKGDVRGIEELLDEGIDVNSIDLDGRTALHIAACEGHLGVVKALLSRRANIDARDRWGSTAAADAKYYGNLDVYNLLKARGAKVPKTRKTPMTVSNPREVPEYELNPLEVQVRKSDGISKGAYQVAKWNGTRVSVKILDKDSYSDPERINAFRHELTLLEKVRHPNVIQFVGAVTQNIPMMIVVEYNPKGDLSVYLQKKGRLSPSKALRFALDIARGMNYLHECKPDPIIHCDLKPKNILLDRGGQLKISGFGMIRLSKISQDKAKVANHKAHIDLSNYYIAPEVYKDEIFDLRVDAHSFGVILYEITEGVPVFHPRPPEEVARMMCLEGKRPVFKTKSRSYPPDIKELIEKCWHPEAGIRPTFSEIIIRLDKIVANCSKQGWWKDTFKFPWK
notes: ILK1, integrin-linked kinase 1, a pseudokinase of the Raf-like MAP3K family, Arabidopsis; also called purified ILK1-V5 protein; source: purified as described previously (Brauer et al., 2014, 2016); purity validated by mass spectrometry
